One molecule from US20160046675A1 (US Dept. of Health and Human Services, published 2016) can be followed below.

The target of this assay is RSV F glycoprotein on RSV-infected HEp-2 cells and on RSV virions (respiratory syncytial virus; strain not …, UniProt P03420 26-109; P03420 137-574). Briefly: cell-based or functional assay.
Chain of RSV F glycoprotein on RSV-infected HEp-2 cells and on RSV virions (P03420 26-109, chain 1 of 2): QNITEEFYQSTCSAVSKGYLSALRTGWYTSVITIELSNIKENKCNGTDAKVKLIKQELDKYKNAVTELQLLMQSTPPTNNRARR
Chain of RSV F glycoprotein on RSV-infected HEp-2 cells and on RSV virions (P03420 137-574, chain 2 of 2): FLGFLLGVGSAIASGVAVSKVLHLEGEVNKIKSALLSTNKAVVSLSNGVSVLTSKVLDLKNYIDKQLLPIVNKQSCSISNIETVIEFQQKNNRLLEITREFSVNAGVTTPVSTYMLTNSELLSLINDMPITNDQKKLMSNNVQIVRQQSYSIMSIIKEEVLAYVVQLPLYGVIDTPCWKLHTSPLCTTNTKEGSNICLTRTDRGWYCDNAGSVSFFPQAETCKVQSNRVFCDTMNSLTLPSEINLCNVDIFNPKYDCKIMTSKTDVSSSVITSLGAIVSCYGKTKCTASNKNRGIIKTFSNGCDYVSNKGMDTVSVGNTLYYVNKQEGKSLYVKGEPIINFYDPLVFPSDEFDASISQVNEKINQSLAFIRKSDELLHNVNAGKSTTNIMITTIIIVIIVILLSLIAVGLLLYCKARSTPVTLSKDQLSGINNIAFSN

B1: AM22 monoclonal antibody (antibody, V domains shown)
VH: QVQLVQSGAEVKKPGATVKVSCKISGHTLIKLSIHWVRQAPGKGLEWMGGYEGEVDEIFYAQKFQHRLTVIADTATDTVYMELGRLTSDDTAVYFCGTLGVTVTEAGLGIDDYWGQGTLVTVSS
VL: EIVLTQSPGTLSLSPGERATLSCRASQIVSRNHLAWYQQKPGQAPRLLIFGASSRATGIPVRFSGSGSGTDFTLTINGLAPEDFAVYYCLSSDSSIFTFGPGTKVDFKR
As for B1, the “RSV neutralization (flow cytometry, RSV-GFP on HEp-2 cells)” value was ~50 fold (potency relative to palivizumab).
